How the values were obtained:
[1] = cited from earlier work
GLP1R = target: T1, GLP1R (Homo sapiens, UniProt P43220); experiment: Long-term storage stability, CHOK-1-GL1R cells with cAMP-Glo Max Assay; assay type: cell-based; details: stored in PBS, pH7.2, 1.3 mg/mL, 2-8° C. for one year
T1 construct: host or cells: CHO-K1 (hamster ovarian cell line), CHOK-1-GL1R
Description: GLP1-G8_I_VARfeIgG2 (SEQ ID NO: 26) was stored in PBS, pH7.2 at a concentration of 1.3 mg/mL, placed in 1.5 mL Eppendorf tube, and stored at 2-8° C. for one year (Lot 2-29-2016). GLP1-G8_I_VARfeIgG2 (SEQ ID NO: 26) was also stored in PBS, pH7.2 at a concentration of 10 mg/mL, placed in 1.5 mL Eppendorf tube, and stored at 2-8° C. for one day (Lot 2-2-2017).
CHOK-1-GL1R cells were plated in a 96-well plate (Corning, Cat #3610) at a density of 20,000 cells per well in F-12K Medium (ATCC, Cat #ATCC® 30-2004) supplemented with 10% Fetal Bovine Serum, heat inactivated (Sigma, Cat #2868) and incubated at 37° C., 5% CO2 for 24 hours. […] (Sigma Aldrich, Cat. #B8279) to a final concentration 100 μL.
The cells were incubated at room temperature for 30 minutes. In this process, upon GLP1 binding to the Gs-coupled GLP1R receptor, Gs stimulates adenylate cyclase to generate cAMP. […]
Mono-oxygenation of luciferin was catalyzed by luciferase in the presence of Mg^2+ and ATP that presented in the cell lysate, resulting in a luminescent signal proportional to the amount of ATP in the cells. At the end of 10 min incubation, the plate was read on a Synergy HT microplate reader (Biotek, Winooski, VT). Luminescence is proportional to ATP levels but inversely proportional to cAMP levels. Thus, as cAMP concentration increases, luminescence decreases.

[2] = assay type: in vitro ADME, feline; details: pH 7.2
Description: (§1) GLP1-G8_I_VARfeIgG2 (SEQ ID NO: 26) was stored in PBS, pH7.2 with feline serum at 37° C. for 24 hours to test in vitro serum stability.

[3] = In vivo pharmacokinetics in cats, serum concentration by quantitative ELISA; details: single dose 2 mg/kg subcutaneous, 5 cats
Description: (§2) The plate was sealed and incubated overnight at 4° C. […] After removing the blocking buffer, serial dilutions of reference standard and samples in blocking buffer were added (100 μl/well) and the plate was incubated for 2 hours at room temperature. […] TMB substrate (ScyTek, Catalog No. TM1999) was added (100 μl/well) and allowed to incubate at room temperature for 1 minute. The reaction was stopped by the addition of 2M H2SO4 (50 μl/well).

[4] = In vivo pharmacokinetics in cats, serum concentration by cell-based activity assay; details: single dose 2 mg/kg subcutaneous, 5 cats, 0 to 168 hours
[5] = in vivo, sc, 2 mg/kg
[6] = in vivo, sc, 2 mg/kg; remark: listed apart in the source
Description: as §2

[7] = Differential scanning fluorimetry, stability at various pH; assay type: physicochemical; details: n = 3, 10 μg construct
Excerpt: Furthermore, differential scanning fluorimetry was used to assess the stability of the contiguous polypeptides at various pH, as reflected by mean melting point temperature (n=3) (Table 9, below). The increased stability of the variant feline IgG2 hinge is most evident at pH 6.

[8] = assay type: in vitro ADME, feline
Description: (lane 1), in PBS for 24 hours at 37° C. (lane 2), in PBS for 24 hours at 4° C. (lane 9). A mouse anti-GLP1 antibody was used.
as §1

T1 sequence (P43220 24-463): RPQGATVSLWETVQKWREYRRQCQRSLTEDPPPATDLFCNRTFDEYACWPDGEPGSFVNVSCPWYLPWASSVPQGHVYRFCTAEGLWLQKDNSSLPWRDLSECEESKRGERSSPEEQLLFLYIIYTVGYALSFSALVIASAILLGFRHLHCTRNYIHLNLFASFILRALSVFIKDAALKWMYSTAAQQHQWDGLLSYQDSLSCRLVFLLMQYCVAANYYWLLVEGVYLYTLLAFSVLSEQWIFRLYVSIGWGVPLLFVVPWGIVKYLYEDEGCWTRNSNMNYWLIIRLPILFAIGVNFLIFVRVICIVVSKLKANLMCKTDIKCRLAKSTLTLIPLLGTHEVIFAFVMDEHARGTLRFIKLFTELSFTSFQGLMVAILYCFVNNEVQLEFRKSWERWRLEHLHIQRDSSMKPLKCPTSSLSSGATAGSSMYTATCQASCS

| Molecule | in vivo half-life [1] | cellular activity after storage (GLP1R) | activity after serum incubation [2] | average Cmax [3] [µg/mL] | average Tmax [3] [h] | mean area under the curve (AUC) [3] | mean AUC [4] | mean t1/2 [5] [h] | mean serum half-life (t1/2) [6] [h] | Mean Melting Point Temperature (Tm) ([7]; pH 5) [°C] | Mean Melting Point Temperature (Tm) ([7]; pH 6) [°C] | Mean Melting Point Temperature (Tm) ([7]; pH 7) [°C] | Mean Melting Point Temperature (Tm) ([7]; pH 8) [°C] | degradation by Western blot [8] |
| --- | --- | --- | --- | --- | --- | --- | --- | --- | --- | --- | --- | --- | --- | --- |
| Native GLP1: Glucagon-like peptide-1 (GLP1), a potent antihyperglycemic hormone | approximately 2 minutes | – | – | – | – | – | – | – | – | – | – | – | – | – |
| GLP1-G8_I_VARfeIgG2: Formula I GLP1-G8 contiguous polypeptide comprising variant feline IgG2 Fc of SEQ ID NO: 17 (Gly to Cys at position 14) (protein, Synthetic GLP1-G8_I_VARfeIgG2) HGEGTFTSDVSSYLEGQAAKEFIAWLVKGGGGSGGGGSGGGGSGGGGSPKTASTIESKTGECPKCPVPEIPGAPSVFIFPPKPKDTLSISRTPEVTCLVVDLGPDDSNVQITWFVDNTEMHTAKTRPREEQFNSTYRVVSVLPILHQDWLKGKEFKCKVNSKSLPSAMERTISKAKGQPHEPQVYVLPPTQEELSENKVSVTCLIKGFHPPDIAVEWEITGQPEPENNYQTTPPQLDSDGTYFLYSRLSVDRSHWQRGNTYTCSVSHEALHSHHTQKSLTQSPGK | – | maintained cellular activity | activity was maintained | 12 | 22 | about 950 m(h)/mL | about 840 μg(h)/mL | 36 | 39 | 53.1 | 59.7 | 59.9 | 58.2 | no visible degradations were observed |
